Literature values as cited in article PMC6021539.

Target: Adrenomedullin (Homo sapiens) (UniProt P35318)

Kd: 190 nM
Substance: CXCR7 (from UniProt P25106)
